Test results taken from patent publication US9988424 (DUKE UNIVERSITY, dated 2018).

What was measured:
A.9004SS V1/V2 tags = target: T1, A.9004SS V1/V2 tags; experiment: ELISA, OD405 at 10 ug/ml
T1 V1V2 tags construct: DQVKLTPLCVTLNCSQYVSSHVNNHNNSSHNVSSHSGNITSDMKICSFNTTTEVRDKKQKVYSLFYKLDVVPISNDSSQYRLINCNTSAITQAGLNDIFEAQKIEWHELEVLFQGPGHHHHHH

gp70 B.CaseA2 V1/V2 = target: T2, gp70 B.CaseA2 V1/V2 (HIV-1 V1V2 on murine leukemia virus gp70); experiment: ELISA, OD405 at 10 ug/ml
T2 construct: also called B.gp70CaseA2 V1/V2; gp70 B.CaseAV1V2
T2 chain: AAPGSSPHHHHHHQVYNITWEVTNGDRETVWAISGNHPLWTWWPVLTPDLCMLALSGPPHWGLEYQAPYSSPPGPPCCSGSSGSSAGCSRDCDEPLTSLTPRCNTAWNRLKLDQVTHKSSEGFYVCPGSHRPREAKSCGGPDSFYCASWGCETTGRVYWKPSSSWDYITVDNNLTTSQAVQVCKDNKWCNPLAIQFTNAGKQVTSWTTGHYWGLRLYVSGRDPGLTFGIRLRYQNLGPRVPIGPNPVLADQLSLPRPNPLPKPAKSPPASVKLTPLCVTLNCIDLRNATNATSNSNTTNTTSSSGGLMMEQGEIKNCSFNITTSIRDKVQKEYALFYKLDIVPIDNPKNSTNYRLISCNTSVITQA

B.9021 gp140C = B.9021 gp140C (HIV-1); experiment: ELISA, OD405 at 10 ug/ml
B.040 gp140C = experiment: ELISA, OD405 at 10 ug/ml
SIV CPZ US-1 gp140CF = target: T3, SIV CPZ US-1 gp140CF (SIVcpz); experiment: ELISA, OD405 at 10 ug/ml
T3 construct: also called US-1 SIVCPZ gp140CF
T3 chain: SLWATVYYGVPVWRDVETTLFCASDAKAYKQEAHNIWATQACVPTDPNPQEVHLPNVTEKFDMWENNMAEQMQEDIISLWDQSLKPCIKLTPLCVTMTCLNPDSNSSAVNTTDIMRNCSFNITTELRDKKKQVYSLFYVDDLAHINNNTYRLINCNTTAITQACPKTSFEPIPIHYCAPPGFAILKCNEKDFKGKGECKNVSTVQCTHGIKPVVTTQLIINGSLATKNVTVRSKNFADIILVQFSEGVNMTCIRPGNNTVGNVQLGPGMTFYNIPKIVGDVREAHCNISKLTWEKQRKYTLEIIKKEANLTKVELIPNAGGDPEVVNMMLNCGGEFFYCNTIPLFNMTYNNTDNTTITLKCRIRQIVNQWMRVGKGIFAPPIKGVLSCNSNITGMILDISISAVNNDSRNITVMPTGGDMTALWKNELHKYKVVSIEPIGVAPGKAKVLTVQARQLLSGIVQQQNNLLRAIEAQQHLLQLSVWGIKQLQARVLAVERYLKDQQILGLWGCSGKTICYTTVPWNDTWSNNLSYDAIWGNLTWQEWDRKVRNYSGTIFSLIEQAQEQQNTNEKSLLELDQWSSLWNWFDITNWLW

B.62357 gp140C = target: T4, B.62357 gp140C; experiment: ELISA, OD405 at 10 ug/ml
T4 construct: also called B.62357 140C

B.HXB/BAL gp140CFI = target: T5, B.HXB/BAL gp140CFI (HIV-1, UniProt P04578 33-680); experiment: ELISA, OD405 at 10 ug/ml
T5 construct: also called B.HxB/Ba gp140 CFI

D.9009SA V1/V2 tags = experiment: ELISA, OD405 at 10 ug/ml
C.1086 V1V2 Tags = C.1086 V1V2 Tags (HIV-1); experiment: ELISA, OD405 at 10 ug/ml
gp70 C.1086 V1/V2 = target: T6, gp70 C.1086 V1/V2 (HIV-1 V1V2 on murine leukemia virus gp70); experiment: ELISA, OD405 at 10 ug/ml
T6 construct: also called C.gp70 1086C V1V2; C.1086gp70V1V2
T6 chain: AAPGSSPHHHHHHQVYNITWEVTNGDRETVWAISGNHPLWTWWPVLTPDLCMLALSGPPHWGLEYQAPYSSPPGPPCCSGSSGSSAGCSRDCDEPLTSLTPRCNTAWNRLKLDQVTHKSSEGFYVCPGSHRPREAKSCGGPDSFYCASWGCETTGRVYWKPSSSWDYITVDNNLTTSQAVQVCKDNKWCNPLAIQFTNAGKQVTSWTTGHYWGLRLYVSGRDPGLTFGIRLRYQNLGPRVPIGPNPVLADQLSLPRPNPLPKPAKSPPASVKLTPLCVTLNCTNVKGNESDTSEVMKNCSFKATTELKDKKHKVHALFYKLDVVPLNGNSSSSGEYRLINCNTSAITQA

B. 681-7 gp140C = experiment: ELISA, OD405
A.9004SS V1V2 Tags = target: T7, A.9004SS V1V2 Tags; experiment: ELISA, OD405
T7 Env construct: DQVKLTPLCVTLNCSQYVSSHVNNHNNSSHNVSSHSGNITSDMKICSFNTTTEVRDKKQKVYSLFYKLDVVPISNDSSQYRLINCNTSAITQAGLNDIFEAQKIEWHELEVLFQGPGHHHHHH

G.con gp140CF = target: T8, G.con gp140CF; experiment: ELISA, OD405
T8 construct: also called G.con.env03 gp140CF

B.63521 gp140C = experiment: ELISA, OD405
AE.con gp140CF = target: T9, AE.con gp140CF; experiment: ELISA, OD405
T9 construct: also called AE.con.env03 gp140CF

B. 684-6 gp140C = experiment: ELISA, OD405
B.con gp140CF = target: T10, B.con gp140CF; experiment: ELISA, OD405
T10 construct: also called B.con.env03 gp140CF

C.1086 gp140 = target: T11, C.1086 gp140; experiment: ELISA, OD405
T11 construct: also called C.1086gp140C

B.63521_V1V2 Tags = target: T12, B.63521_V1V2 Tags; experiment: ELISA, OD405
T12 Env construct: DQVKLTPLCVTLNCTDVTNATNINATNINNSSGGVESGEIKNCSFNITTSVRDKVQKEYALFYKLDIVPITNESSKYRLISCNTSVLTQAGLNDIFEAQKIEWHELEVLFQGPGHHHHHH

B.62357 140C = target: T13, B.62357 140C; experiment: ELISA, OD405
T13 construct: also called B.62357 gp140C

Measured: binding result

B1: PG16 (antibody, V domains shown)
VH: QEQLVESGGGVVQPGGSLRLSCLASGFTFHKYGMHWVRQAPGKGLEWVALISDDGMRKYHSDSMWGRVTISRDNSKNTLYLQFSSLKVEDTAMFFCAREAGGPIWHDDVKYYDFNDGYYNYHYMDVWGKGTTVTVSS
VL: QSALTQPASVSGSPGQTITISCNGTSSDVGGFDSVSWYQQSPGKAPKVMVFDVSHRPSGISNRFSGSKSGNTASLTISGLHIEDEGDYFCSSLTDRSHRIFGGGTKVTVL
notes: also called mAb PG16; bnAb PG16
no binding (tested: 10 ug/ml): A.9004SS V1/V2 tags | gp70 B.CaseA2 V1/V2 | B.9021 gp140C | B.040 gp140C | SIV CPZ US-1 gp140CF | B.62357 gp140C | B.HXB/BAL gp140CFI | D.9009SA V1/V2 tags | C.1086 V1V2 Tags | gp70 C.1086 V1/V2

B2: 697D reverted unmutated ancestor antibody (antibody, V domains shown)
VH: QVQLVQSGAEVKKPGSSVKVSCKASGGTFSSYTISWVRQAPGQGLEWMGRIIPILGIANYAQKFQGRVTITADKSTSTAYMELSSLRSEDTAVYYCATSGVGLHFGYFDYWGQGTLVTVSS
VL: QSVLTQPPSVSGAPGQRVTISCTGSSSNIGAGYDVHWYQQLPGTAPKLLIYGNSNRPSGVPDRFSGSKSGTSASLAITGLQAEDEADYYCQSYDSSLSGYVFGTGTKVTVL
notes: also called 697D RUA
no binding (tested: 10 ug/ml): B. 681-7 gp140C | A.9004SS V1V2 Tags | G.con gp140CF | B.63521 gp140C | AE.con gp140CF | B. 684-6 gp140C | B.con gp140CF | C.1086 gp140 | B.63521_V1V2 Tags | B.62357 140C
